PMC7162537

Biological target: BRCA1 (UniProt P38398)
Experiment: anti-HA co-IP from nuclear extract, blot
Conditions: reference: wild type FANCJ; sites S990

FANCJ (from UniProt Q9BX63) S990A was tested, and the “binding against the reference” value was “lost”.
